In patent US20200377590A1 (Hoffmann-La Roche, published 2020):

T1: CD81 (UniProt P60033 1-236, limits assumed)
T1 construct: whole, on cells; also called CD81 receptor
T1 sequence (looked up): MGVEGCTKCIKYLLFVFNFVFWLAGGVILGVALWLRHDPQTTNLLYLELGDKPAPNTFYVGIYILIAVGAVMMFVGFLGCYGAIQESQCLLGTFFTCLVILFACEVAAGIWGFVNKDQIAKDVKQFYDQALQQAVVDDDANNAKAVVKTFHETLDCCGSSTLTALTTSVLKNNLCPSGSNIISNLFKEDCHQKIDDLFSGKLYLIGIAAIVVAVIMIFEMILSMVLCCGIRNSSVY

B1: CD81K13 HC 03-hVH_1_69 / LC 06-hVK_1_39 (antibody, V domains shown)
VH: QVQLVQSGAEVKKPGSSVKVSCKASGFNFKDSYLHWVRQAPGQGLEWMGRIDTGNGNVKYAQKFQGRVTITADESTSTAYMELSSLRSEDTAVYYCAPYGYGFHSWGQGTLVTVSS
VL: DIQMTQSPSSLSASVGDRVTITCRASENIYRTLAWYQQKPGKAPKLLIYAATTLASGVPSRFSGSGSGTDFTLTISSLQPEDFGTYYCQHFWGTPWTFGQGTKVEIK
notes: human constant region
B2: CD81K13 HC 05-hVH_1_69 / LC 03-hVK_1_9 (antibody, V domains shown)
VH: QVQLVQSGAEVKKPGSSVKVSCKASGFNFKDSYLHWVRQAPGQGLEWMGRIDTGNGNVKFDPKFQGRVTITTDESTSTAYMELSSLRSEDTAVYYCVPYGYGFHSWGQGTLVTVSS
VL: DIQLTQSPSFLSASVGDRVTITCRASENIYRTLAWYQQKPGKAPKLLIYAATTLASGVPSRFSGSGSGTEFTLTISSLQPEDFATYYCQHFWGTPWTFGQGTKVEIK
notes: human constant region
B3: CD81K13 HC 5b-hVH_1_69 / LC 06-hVK_1_39 (antibody, V domains shown)
VH: QVQLVQSGAELVKPGSSVKVSCKASGFNFKDSYLHWVRQAPGQGLEWMGRIDTGNGNVKFDPKFQGRVTITTDESTSTAYMELSSLRSEDTAVYYCVPYGYGFHSWGQGTLVTVSS
VL: DIQMTQSPSSLSASVGDRVTITCRASENIYRTLAWYQQKPGKAPKLLIYAATTLASGVPSRFSGSGSGTDFTLTISSLQPEDFGTYYCQHFWGTPWTFGQGTKVEIK
notes: human constant region
B4: CD81K13 HC 05-hVH_1_69 / LC 06-hVK_1_39 (antibody, V domains shown)
VH: QVQLVQSGAEVKKPGSSVKVSCKASGFNFKDSYLHWVRQAPGQGLEWMGRIDTGNGNVKFDPKFQGRVTITTDESTSTAYMELSSLRSEDTAVYYCVPYGYGFHSWGQGTLVTVSS
VL: DIQMTQSPSSLSASVGDRVTITCRASENIYRTLAWYQQKPGKAPKLLIYAATTLASGVPSRFSGSGSGTDFTLTISSLQPEDFGTYYCQHFWGTPWTFGQGTKVEIK
notes: human constant region
B5: CD81K13 HC 05-hVH_1_69 / LC 04-hVK_1_9 (antibody, V domains shown)
VH: QVQLVQSGAEVKKPGSSVKVSCKASGFNFKDSYLHWVRQAPGQGLEWMGRIDTGNGNVKFDPKFQGRVTITTDESTSTAYMELSSLRSEDTAVYYCVPYGYGFHSWGQGTLVTVSS
VL: DIQLTQSPSFLSASVGDRVTITCRASENIYRTLAWYQQKPGKAPKLLIYAATTLASGVPSRFSGSGSGTEFTLTISSLQPEDFGTYYCQHFWGTPWTFGQGTKVEIK
notes: human constant region
B6: CD81K13 HC 5b-hVH_1_69 / LC 5b-hVK_1_39 (antibody, V domains shown)
VH: QVQLVQSGAELVKPGSSVKVSCKASGFNFKDSYLHWVRQAPGQGLEWMGRIDTGNGNVKFDPKFQGRVTITTDESTSTAYMELSSLRSEDTAVYYCVPYGYGFHSWGQGTLVTVSS
VL: DIQMTQSPSSLSASVGDRVTITCRASENIYRTLAWYQQKPGKAPKLLIYGATTLADGVPSRFSGSGSGTDFTLTISSLQPEDFATYYCQHFWGTPWTFGQGTKVEIK
notes: human constant region
B7: CD81K13 HC 5b-hVH_1_69 / LC 07-hVK_1_27 (antibody, V domains shown)
VH: QVQLVQSGAELVKPGSSVKVSCKASGFNFKDSYLHWVRQAPGQGLEWMGRIDTGNGNVKFDPKFQGRVTITTDESTSTAYMELSSLRSEDTAVYYCVPYGYGFHSWGQGTLVTVSS
VL: DIQMTQSPSSLSASVGDRVTITCRASENIYRTLAWYQQKPGKVPKLLIYAATTLASGVPSRFSGSGSGTDFTLTISSLQPEDVGTYYCQKFWGTPWTFGQGTKVEIK
notes: human constant region
B8: CD81K13 HC 5b-hVH_1_69-GA / LC 04-hVK_1_9 (antibody, V domains shown)
VH: QVQLVQSGAELVKPGSSVKVSCKASGFNFKDSYLHWVRQAPGQGLEWMGRIDTGNGNVKFDPKFQGRVTITTDESTSTAYMELSSLRSEDTAVYYCVPYGYGFHSWGQGTLVTVSS
VL: DIQLTQSPSFLSASVGDRVTITCRASENIYRTLAWYQQKPGKAPKLLIYAATTLASGVPSRFSGSGSGTEFTLTISSLQPEDFGTYYCQHFWGTPWTFGQGTKVEIK
notes: human constant region
B9: CD81K13 HC 5b-hVH_1_69-GA / LC 06-hVK_1_39 (antibody, V domains shown)
VH: QVQLVQSGAELVKPGSSVKVSCKASGFNFKDSYLHWVRQAPGQGLEWMGRIDTGNGNVKFDPKFQGRVTITTDESTSTAYMELSSLRSEDTAVYYCVPYGYGFHSWGQGTLVTVSS
VL: DIQMTQSPSSLSASVGDRVTITCRASENIYRTLAWYQQKPGKAPKLLIYAATTLASGVPSRFSGSGSGTDFTLTISSLQPEDFGTYYCQHFWGTPWTFGQGTKVEIK
notes: human constant region
B10: CD81K13 HC 5b-hVH_1_69 / LC 5b-hVK_1_39-GA (antibody, V domains shown)
VH: QVQLVQSGAELVKPGSSVKVSCKASGFNFKDSYLHWVRQAPGQGLEWMGRIDTGNGNVKFDPKFQGRVTITTDESTSTAYMELSSLRSEDTAVYYCVPYGYGFHSWGQGTLVTVSS
VL: DIQMTQSPSSLSASVGDRVTITCRASENIYRTLAWYQQKPGKAPKLLIYGATTLADGVPSRFSGSGSGTDFTLTISSLQPEDFATYYCQHFWGTPWTFGQGTKVEIK
notes: human constant region
B11: CD81K13 HC 5b-hVH_1_69-GA / LC 07-hVK_1_27 (antibody, V domains shown)
VH: QVQLVQSGAELVKPGSSVKVSCKASGFNFKDSYLHWVRQAPGQGLEWMGRIDTGNGNVKFDPKFQGRVTITTDESTSTAYMELSSLRSEDTAVYYCVPYGYGFHSWGQGTLVTVSS
VL: DIQMTQSPSSLSASVGDRVTITCRASENIYRTLAWYQQKPGKVPKLLIYAATTLASGVPSRFSGSGSGTDFTLTISSLQPEDVGTYYCQKFWGTPWTFGQGTKVEIK
notes: human constant region
B12: CD81K13 HC 06-hVH_1_3 / LC 03-hVK_1_9 (antibody, V domains shown)
VH: QVQLVQSGAEVKKPGASVKVSCKASGYTFKDSYLHWVRQAPGQRLEWMGRIDTGNGNVKFDPKFQGRVTITTDTSASTAYMELSSLRSEDTAVYYCAPYGYGFHSWGQGTLVTVSS
VL: DIQLTQSPSFLSASVGDRVTITCRASENIYRTLAWYQQKPGKAPKLLIYAATTLASGVPSRFSGSGSGTEFTLTISSLQPEDFATYYCQHFWGTPWTFGQGTKVEIK
notes: human constant region
B13: CD81K13 HC 05-hVH_1_69 / LC 5b-hVK_1_39 (antibody, V domains shown)
VH: QVQLVQSGAEVKKPGSSVKVSCKASGFNFKDSYLHWVRQAPGQGLEWMGRIDTGNGNVKFDPKFQGRVTITTDESTSTAYMELSSLRSEDTAVYYCVPYGYGFHSWGQGTLVTVSS
VL: DIQMTQSPSSLSASVGDRVTITCRASENIYRTLAWYQQKPGKAPKLLIYGATTLADGVPSRFSGSGSGTDFTLTISSLQPEDFATYYCQHFWGTPWTFGQGTKVEIK
notes: human constant region
B14: CD81K13 HC 5b-hVH_1_69-GA / LC 03-hVK_1_9 (antibody, V domains shown)
VH: QVQLVQSGAELVKPGSSVKVSCKASGFNFKDSYLHWVRQAPGQGLEWMGRIDTGNGNVKFDPKFQGRVTITTDESTSTAYMELSSLRSEDTAVYYCVPYGYGFHSWGQGTLVTVSS
VL: DIQLTQSPSFLSASVGDRVTITCRASENIYRTLAWYQQKPGKAPKLLIYAATTLASGVPSRFSGSGSGTEFTLTISSLQPEDFATYYCQHFWGTPWTFGQGTKVEIK
notes: human constant region
B15: CD81K13 HC 5b-hVH_1_69-GA / LC 5b-hVK_1_39-GA (antibody, V domains shown)
VH: QVQLVQSGAELVKPGSSVKVSCKASGFNFKDSYLHWVRQAPGQGLEWMGRIDTGNGNVKFDPKFQGRVTITTDESTSTAYMELSSLRSEDTAVYYCVPYGYGFHSWGQGTLVTVSS
VL: DIQMTQSPSSLSASVGDRVTITCRASENIYRTLAWYQQKPGKAPKLLIYGATTLADGVPSRFSGSGSGTDFTLTISSLQPEDFATYYCQHFWGTPWTFGQGTKVEIK
notes: human constant region
B16: CD81K13 HC 5b-hVH_1_69 / LC 04-hVK_1_9 (antibody, V domains shown)
VH: QVQLVQSGAELVKPGSSVKVSCKASGFNFKDSYLHWVRQAPGQGLEWMGRIDTGNGNVKFDPKFQGRVTITTDESTSTAYMELSSLRSEDTAVYYCVPYGYGFHSWGQGTLVTVSS
VL: DIQLTQSPSFLSASVGDRVTITCRASENIYRTLAWYQQKPGKAPKLLIYAATTLASGVPSRFSGSGSGTEFTLTISSLQPEDFGTYYCQHFWGTPWTFGQGTKVEIK
notes: human constant region
B17: CD81K13 HC 5b-hVH_1_69-GA / LC 05-hVK_1_39 (antibody, V domains shown)
VH: QVQLVQSGAELVKPGSSVKVSCKASGFNFKDSYLHWVRQAPGQGLEWMGRIDTGNGNVKFDPKFQGRVTITTDESTSTAYMELSSLRSEDTAVYYCVPYGYGFHSWGQGTLVTVSS
VL: DIQMTQSPSSLSASVGDRVTITCRASENIYRTLAWYQQKPGKAPKLLIYAATTLASGVPSRFSGSGSGTDFTLTISSLQPEDFATYYCQHFWGTPWTFGQGTKVEIK
notes: human constant region
B18: CD81K13 HC 05-hVH_1_69 / LC 5b-hVK_1_39-GA (antibody, V domains shown)
VH: QVQLVQSGAEVKKPGSSVKVSCKASGFNFKDSYLHWVRQAPGQGLEWMGRIDTGNGNVKFDPKFQGRVTITTDESTSTAYMELSSLRSEDTAVYYCVPYGYGFHSWGQGTLVTVSS
VL: DIQMTQSPSSLSASVGDRVTITCRASENIYRTLAWYQQKPGKAPKLLIYGATTLADGVPSRFSGSGSGTDFTLTISSLQPEDFATYYCQHFWGTPWTFGQGTKVEIK
notes: human constant region
B19: CD81K13 HC 5b-hVH_1_69 / LC 05-hVK_1_39 (antibody, V domains shown)
VH: QVQLVQSGAELVKPGSSVKVSCKASGFNFKDSYLHWVRQAPGQGLEWMGRIDTGNGNVKFDPKFQGRVTITTDESTSTAYMELSSLRSEDTAVYYCVPYGYGFHSWGQGTLVTVSS
VL: DIQMTQSPSSLSASVGDRVTITCRASENIYRTLAWYQQKPGKAPKLLIYAATTLASGVPSRFSGSGSGTDFTLTISSLQPEDFATYYCQHFWGTPWTFGQGTKVEIK
notes: human constant region
B20: CD81K13 HC 5b-hVH_1_69 / LC 03-hVK_1_9 (antibody, V domains shown)
VH: QVQLVQSGAELVKPGSSVKVSCKASGFNFKDSYLHWVRQAPGQGLEWMGRIDTGNGNVKFDPKFQGRVTITTDESTSTAYMELSSLRSEDTAVYYCVPYGYGFHSWGQGTLVTVSS
VL: DIQLTQSPSFLSASVGDRVTITCRASENIYRTLAWYQQKPGKAPKLLIYAATTLASGVPSRFSGSGSGTEFTLTISSLQPEDFATYYCQHFWGTPWTFGQGTKVEIK
notes: human constant region
B21: CD81K13 HC 5b-hVH_1_69-GA / LC 5b-hVK_1_39 (antibody, V domains shown)
VH: QVQLVQSGAELVKPGSSVKVSCKASGFNFKDSYLHWVRQAPGQGLEWMGRIDTGNGNVKFDPKFQGRVTITTDESTSTAYMELSSLRSEDTAVYYCVPYGYGFHSWGQGTLVTVSS
VL: DIQMTQSPSSLSASVGDRVTITCRASENIYRTLAWYQQKPGKAPKLLIYGATTLADGVPSRFSGSGSGTDFTLTISSLQPEDFATYYCQHFWGTPWTFGQGTKVEIK
notes: human constant region

These binders were tested against T1, CD81 (assay: cell ELISA;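 note: antibody binding to HuH7 cells expressing CD81 versus a CD81-negative HuH7 control line, bound antibody detected by secondary reagent, absorbance at 450 nm with 620 nm reference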).
Experimental: For the binding cell ELISA assay, HuH7-Rluc-H3 (positive cell line expressing CD81) and HuH7-Rluc-L1 (negative control cell line) were propagated in F-12 DMEM medium with 10% FCS at 37° C. and 5% CO₂. On day 1, the cells were trypsinized at approximately 90% confluence and resuspended at 4×10⁵ cells/mL. […] On day 2, the antibody samples to be tested were prepared in a separate polypropylene round bottom plate with a twofold desired concentration with a final volume of 120 μl. All of the assay samples were diluted in cell culture medium. […] After fixation, each well was washed 3 times with 200 μL PBS/0.05% Tween. The secondary incubation step for detection of bound anti-CD81 antibodies was performed for 2 h at room temperature on a reciprocal shaker. […] Each well was washed three times with 200 μL PBS/0.05% Tween to remove unbound antibodies. […] The absorbance was read using the ELISA Tecan reader at 450 nm with 620 nm reference wavelength.
With B1 the ELISA data was 0.484.
In the case of B2, the ELISA data is reported as 0.787.
With B3 the ELISA data was 0.522.
In the case of B4, the ELISA data is reported as 0.603.
B5 showed an ELISA data of 0.685.
B6 showed an ELISA data of 0.463.
With B7 the ELISA data was 0.114.
B8 gave an ELISA data of 0.786.
In the case of B9, the ELISA data is reported as 0.528.
With B10 the ELISA data was 0.646.
For B11, the ELISA data was 0.11.
Binder B12 has an ELISA data of 0.352.
In the case of B13, the ELISA data is reported as 0.692.
With B14 the ELISA data was 0.788.
With B15 the ELISA data was 0.684.
B16 was tested, and the ELISA data was 0.695.
B17 was tested, and the ELISA data was 0.858.
B18 gave an ELISA data of 0.551.
B19 was tested, and the ELISA data was 0.905.
B20 showed an ELISA data of 0.73.
For B21, the ELISA data was 0.737.
